According to patent publication US20260137799A1, “ANTI-MUC1* ANTIBODY DRUG COMPLEXES AND USES THEREOF” (Minerva Biotechnologies Corporation, priority 2023, published 2026):

How the values were obtained:
[1] = biological target: PSMGFR N-19 C-5 (SEQ ID NO: 159) (Homo sapiens, UniProt P15941); assay: Epitope mapping, binding to PSMGFR N-19 C-5 peptide
Text: FIG. 2B quantifies binding of the 3C2B1 anti-MUC1* antibody to the peptides of FIG. 2A.
(§1) The 3C2B1 epitope was mapped more precisely with additional PSMGFR peptide variants (FIGS. 2A, 2B).

[2] = test system: OE19 esophageal cancer cells; assay: Antibody internalization (pHrodo Deep Red), OE19; format: cell-based
Procedure: (§2) Internalization of antibody 3C2B1 into HPAFII pancreatic cancer cells (FIGS. 5A-5G) and OE19 esophageal cancer cells (FIGS. 5H-5N) was detectable after 8 hours and nearly complete at 16 hours. The results are quantified in FIG. 5O.
(§3) Antibodies C2 and 3C2B1 were coupled to a pH sensitive fluorophore using the pHrodo Deep Red TFP Ester kit (Thermo cat #P35356), according to manufacturer instructions. Cancer cells were seeded at ˜50,000 cells/well onto μ-Slide 8-well tissue culture-treated, chambered coverslip wells (Ibidi 80806) in their recommended media with 10% FBS. Cells were cultured for 48 hours. Slides were transferred into microscope chamber (37° C.—5% CO2) and equilibrated for ˜30 minutes. The pHrodo Deep Red coupled antibody was then diluted to a concentration of 200 to 300 μg/mL into pre-warmed media supplemented with 10% FBS. Media was removed from the chamber slides and the diluted antibodies were separately added. […]
(§4) Internalization of the fluorescently labeled antibodies was quantified as follows. […] The integrated pixel density (mean gray-scale value×area) was then measured by the ImageJ software. Positively-stained cells were manually counted and the integrated pixel density was divided by the number of positive cells to yield “Pixel Intensity per positive cell”.

[3] = biological target: PSMGFR N-10 peptide (SEQ ID NO: 2) (Homo sapiens, UniProt P15941); assay: ELISA binding to PSMGFR N-10 peptide
Text: Cancer selective anti-MUC1* antibodies bind to a membrane proximal conformational epitope within the MUC1* extracellular domain, as described in WO 2020/146902.
as §1

[4] = test system: HPAFII pancreatic cancer cells; assay: Antibody internalization (pHrodo Deep Red), HPAFII; format: cell-based, human
Procedure: as §2, §3, §4

H1975-MUC1*45 cells = assay: Antibody internalization (pHrodo Deep Red), H1975-MUC1*45; format: cell-based, human
Procedure: Antibodies C2 and 3C2B1 were tested for their ability to be internalized by H1975 lung cancer cells (H1975-wt) and H1975 cells that were engineered to express high levels of a recombinant MUC1* polypeptide with a 45 amino acid extracellular domain (H1975-MUC1*45). In contrast to the T47D breast cancer cells, H1975-wt cells internalized 3C2B1 faster than they internalized C2 (FIGS. 4A1-4A28, 4C1-4C28 and 4E). Two (2) hours post incubation with H1975-wt cells, […] the cells had internalized C2. […] Similar to the T47D cells, MUC1*45 expression increased the internalization rate of C2 and decreased the internalization rate of 3C2B1 (FIGS. 4B1-4B28, 4D1-4D28 and 4E).
Antibodies C2 and 3C2B1 were coupled to a pH sensitive fluorophore using the pHrodo Deep Red TFP Ester kit (Thermo cat #P35356), according to manufacturer instructions. Cancer cells were seeded at ˜50,000 cells/well onto μ-Slide 8-well tissue culture-treated, chambered coverslip wells (Ibidi 80806) in their recommended media with 10% FBS. Cells were cultured for 48 hours. Slides were transferred into microscope chamber (37° C.—5% CO2) and equilibrated for ˜30 minutes. The pHrodo Deep Red coupled antibody was then diluted to a concentration of 200 to 300 μg/mL into pre-warmed media supplemented with 10% FBS. Media was removed from the chamber slides and the diluted antibodies were separately added. Fluorescent (655 nm) and phase contrast images at were collected every 10 min for 12h or 16 h with a Leica Thunder Live Cell 3D microscope.
Internalization of the fluorescently labeled antibodies was quantified as follows. Images were imported into ImageJ. The selection tool was used to draw a region of interest (ROI) on the image. The integrated pixel density (mean gray-scale value×area) was then measured by the ImageJ software. Positively-stained cells were manually counted and the integrated pixel density was divided by the number of positive cells to yield “Pixel Intensity per positive cell”.

lung cancer specimens = assay: IHC of tissue microarray, lung cancer; format: binding, human; settings: 108 specimens, antibodies at 15 μg/mL
Text: (§5) Tissue microarrays are typically made up of hundreds of tissue specimens, where each specimen in the array comes from a different patient. The breast cancer array contained patient specimens of all types of invasive breast cancers, including less common forms such as carcinomas with medullary features and papillary carcinomas. The lung cancer array contained specimens from patients diagnosed with squamous cell carcinoma, adenocarcinoma, mucinous adenocarcinoma, adenosquamous carcinoma and large cell carcinoma. The pancreatic cancer tissue microarray contained specimens from patients with ductal adenocarcinomas.
Of the 108 lung cancer specimens, a total of 61 stained positive with C2, 3C2B1, or both. […] The converse, C2 staining better than 3C2B1, was true in only 5 of the 108 specimens, and these specimens stained weakly with both antibodies. A total of 37 specimens were stained essentially the same with 3C2B1 and C2 antibody.
(§6) Cancerous tissue arrays were purchased from Tissue Array (Derwood, MD). After deparaffinization, antigen retrieval (pH 6.0) was performed for 10 min. The sections incubated in blocking buffer (10% normal goat serum and 5% BSA in TBS) at room temperature for 1 hr before incubating in either C2 or 3C2B1 in 1% BSA-TBS overnight at 4° C. In this particular assay, both antibodies were used at a concentration of 15 μg/mL. […]

breast cancer specimens = assay: IHC of tissue microarray, breast cancer; format: binding, human; settings: 109 specimens, antibodies at 15 μg/mL
Text: as §5
Of the 109 breast cancer specimens, 56 stained positive with C2, 3C2B1, or both. Twenty-two (22) of the specimens stained robustly with C2 and stained less well or not at all with 3C2B1. The converse, 3C2B1 staining better than C2, was true in only 5 of the 109 specimens. Twenty-nine (29) specimens were stained essentially the same with C2 and 3C2B1 antibody.
as §6

Chain of PSMGFR N-19 C-5 (SEQ ID NO: 159) (P15941 1129-1149 limits assumed): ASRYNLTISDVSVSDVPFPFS
Chain of PSMGFR N-10 peptide (SEQ ID NO: 2) (P15941 1120-1154 limits assumed): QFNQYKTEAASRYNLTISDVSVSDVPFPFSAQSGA

B1: 3C2B1: anti-MUC1* monoclonal antibody that bound to the PSMGFR peptide (antibody, V domains shown)
VH: EVMLVESGGGLVKPGGSLKLSCAASGITFSTYTMSWVRQTPEKRLEWVATISTGGDKTYYSDSVKGRFTISRDNAKNNLYLQMSSLRSEDTALYYCARGTTAMYYYAMDYWGQGTSVTVSS
VL: DIVLTQSPASLAVSLGQRATISCRASKSISTSDYNYIHWYQQKPGQPPKLLIYLASNLESGVPARFSGSGSGTDFTLNIHPVEEEDAATYYCQHSRELPLTFGAGTKLELK
- binding to N-19 C-5 variant PSMGFR peptide [1]: bound
- time after which internalization was detectable [2]: 8 h
- time at which internalization was nearly complete [2]: 16 h
- binding to PSMGFR N-10 [3]: bind
- time after which internalization was detectable [4]: 8 h
- time at which internalization was nearly complete [4]: 16 h
- time by which essentially all the cells had internalized the antibody (H1975-MUC1*45 cells; H1975-MUC1*45 cells): 8 h
- effect of MUC1*45 expression on internalization rate (H1975-MUC1*45 cells; H1975-MUC1*45 vs H1975-wt): decreased
- 3C2B1 > C2 (number of specimens stained better with 3C2B1) (lung cancer specimens): 19
- 3C2B1 > C2 (number of specimens stained better with 3C2B1) (breast cancer specimens): 5
